According to article PMC11463350:

Biological target: T1, zPol θ (zebrafish DNA polymerase theta, polymerase domain) (Danio rerio (zebrafish), UniProt F1Q4P4 1798-2576)
T1 sequence: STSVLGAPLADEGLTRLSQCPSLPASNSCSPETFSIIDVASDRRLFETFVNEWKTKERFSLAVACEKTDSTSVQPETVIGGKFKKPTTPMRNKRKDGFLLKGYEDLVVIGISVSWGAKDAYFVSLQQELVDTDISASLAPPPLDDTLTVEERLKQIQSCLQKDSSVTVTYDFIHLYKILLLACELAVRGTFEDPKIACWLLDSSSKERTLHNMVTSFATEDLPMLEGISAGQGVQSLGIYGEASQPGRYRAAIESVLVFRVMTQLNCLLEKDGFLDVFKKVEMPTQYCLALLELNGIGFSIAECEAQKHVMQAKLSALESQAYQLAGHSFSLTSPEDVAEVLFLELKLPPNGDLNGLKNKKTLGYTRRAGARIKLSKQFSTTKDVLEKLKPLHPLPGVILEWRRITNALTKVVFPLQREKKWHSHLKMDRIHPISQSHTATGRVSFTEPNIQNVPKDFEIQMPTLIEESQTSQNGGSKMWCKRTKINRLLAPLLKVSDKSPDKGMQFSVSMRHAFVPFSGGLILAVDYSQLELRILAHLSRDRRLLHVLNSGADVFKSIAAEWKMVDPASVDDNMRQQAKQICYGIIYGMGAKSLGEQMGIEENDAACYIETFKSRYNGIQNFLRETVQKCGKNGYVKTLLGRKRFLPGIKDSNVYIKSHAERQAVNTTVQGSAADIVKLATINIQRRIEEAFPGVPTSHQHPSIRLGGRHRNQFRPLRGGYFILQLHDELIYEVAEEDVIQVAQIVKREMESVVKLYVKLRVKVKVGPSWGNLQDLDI
Assay: EMSA

B1: 25/40 undamaged DNA substrate (dsDNA)
DNA 1: TTTGCCTTGACCATGTAACAGAGAG
DNA 2: TCTCTTCTCTCACTCACGCTCTCTGTTACATGGTCAAGGC
Kd: ~19.8 nM
